Results published in US20180087118.

T1: H-TKQTARK(Me3)STGGKAPR-OH (TR-15, H3 3-17 K9me3 peptide)
T1 chain: TKQTARKSTGGKAPR


What was measured:
[1] = target: T1, H-TKQTARK(Me3)STGGKAPR-OH (TR-15, H3 …)
[2] = target: H3 31-41 K36me3 peptide, P68431

Protein	Km (µM), FDH-coupled demethylase assay [1] [µM]	Km (µM), FDH-coupled demethylase assay [2] [µM]
Human KDM4A 1-347 (His6-tagged, expressed in E. coli from pET28a) (protein) MASESETLNPSARIMTFYPTMEEFRNFSRYIAYIESQGAHRAGLAKVVPPKEWKPRASYDDIDDLVIPAPIQQLVTGQSGLFTQYNIQKKAMTVREFRKIANSDKYCTPRYSEFEELERKYWKNLTFNPPIYGADVNGTLYEKHVDEWNIGRLRTILDLVEKESGITIEGVNTPYLYFGMWKTSFAWHTEDMDLYSINYLHFGEPKSWYSVPPEHGKRLERLAKGFFPGSAQSCEAFLRHKMTLISPLMLKKYGIPFDKVTQEAGEFMITFPYGYHAGFNHGFNCAESTNFATRRWIEYGKQAVLCSCRKDMVKISMDVFVRKFQPERYKLWKAGKDNTVIDHTLPT	92.5	170
Human KDM4B 1-348 (His6-tagged, expressed in E. coli from pET28a) (protein) MGSEDHGAQNPSCKIMTFRPTMEEFKDFNKYVAYIESQGAHRAGLAKIIPPKEWKPRQTYDDIDDVVIPAPIQQVVTGQSGLFTQYNIQKKAMTVGEYRRLANSEKYCTPRHQDFDDLERKYWKNLTFVSPIYGADISGSLYDDDVAQWNIGSLRTILDMVERECGTIIEGVNTPYLYFGMWKTTFAWHTEDMDLYSINYLHFGEPKSWYAIPPEHGKRLERLAIGFFPGSSQGCDAFLRHKMTLISPIILKKYGIPFSRITQEAGEFMITFPYGYHAGFNHGFNCAESTNFATLRWIDYGKVATQCTCRKDMVKISMDVFVRILQPERYELWKQGKDLTVLDHTRPT	88.3	138
